Assay results taken from the supplement of paper PMC12458215.
± gives the uncertainty stated by the source.

Tested on: HEK293T
Assay: plasma membrane surface immunostaining intensity (anti-HA, deep receptor scanning) (arbitrary fluorescence units); higher = higher plasma membrane expression

Row | Sequence | plasma membrane surface immunostaining intensity (GPCR class: A (Olfactory)) | plasma membrane surface immunostaining intensity (GPCR class: A) | also measured
1 | MESENRTVIREFILLGLTQSQDIQLLVFVLVLIFYFIILPGNFLIIFTIKSDPGLTAPLYFFLGNLAFLDASYSFIVAPRMLVDFLSAKKIISYRGCITQLFFLHFLGGGEGLLLVVMAFDRYIAICRPLHYPTVMNPRTCYAMMLALWLGGFVHSIIQVVLILRLPFCGPNQLDNFFCDVPQVIKLACTDTFVVELLMVFNSGLMTLLCFLGLLASYAVILCRIRGSSSEAKNKAMSTCITHIIVIFFMFGPGIFIYTRPFRAFPADKVVSLFHTVIFPLLNPVIYTLRNQEVKASMKKVFNKHIA [OR4N2] | 134 ± 28 | – | –
2 | MATLPAAETWIDGGGGVGADAVNLTASLAAGAATGAVETGWLQLLDQAGNLSSSPSALGLPVASPAPSQPWANLTNQFVQPSWRIALWSLAYGVVVAVAVLGNLIVIWIILAHKRMRTVTNYFLVNLAFSDASMAAFNTLVNFIYALHSEWYFGANYCRFQNFFPITAVFASIYSMTAIAVDRYMAIIDPLKPRLSATATKIVIGSIWILAFLLAFPQCLYSKTKVMPGRTLCFVQWPEGPKQHFTYHIIVIILVYCFPLLIMGITYTIVGITLWGGEIPGDTCDKYHEQLKAKRKVVKMMIIVVMTFAICWLPYHIYFILTAIYQQLNRWKYIQQVYLASFWLAMSSTMYNPIIYCCLNKRFRAGFKRAFRWCPFIKVSSYDELELKTTRFHPNRQSSMYTVTRMESMTVVFDPNDADTTRSSRKKRATPRDPSFNGCSRRNSKSASATSSFISSPYTSVDEYS [TACR3] | – | 4780 ± 620 | –
3 | MNYPLTLEMDLENLEDLFWELDRLDNYNDTSLVENHLCPATEGPLMASFKAVFVPVAYSLIFLLGVIGNVLVLVILERHRQTRSSTETFLFHLAVADLLLVFILPFAVAEGSVGWVLGTFLCKTVIALHKVNFYCSSLLLACIAVDRYLAIVHAVHAYRHRRLLSIHITCGTIWLVGFLLALPEILFAKVSQGHHNNSLPRCTFSQENQAETHAWFTSRFLYHVAGFLLPMLVMGWCYVGVVHRLRQAQRRPQRQKAVRVAILVTSIFFLCWSPYHIVIFLDTLARLKAVDNTCKLNGSLPVAITMCEFLGLAHCCLNPMLYTFAGVKFRSDLSRLLTKLGCTGPASLCQLFPSWRRSSLSESENATSLTTF [CXCR5] | – | 630 ± 74 | –
4 | MPSKSLSNLSVTTGANESGSVPEGWERDFLPASDGTTTELVIRCVIPSLYLLIITVGLLGNIMLVKIFITNSAMRSVPNIFISNLAAGDLLLLLTCVPVDASRYFFDEWMFGKVGCKLIPVIQLTSVGVSVFTLTALSADRYRAIVNPMDMQTSGALLRTCVKAMGIWVVSVLLAVPEAVFSEVARISSLDNSSFTACIPYPQTDELHPKIHSVLIFLVYFLIPLAIISIYYYHIAKTLIKSAHNLPGEYNEHTKKQMETRKRLAKIVLVFVGCFIFCWFPNHILYMYRSFNYNEIDPSLGHMIVTLVARVLSFGNSCVNPFALYLLSESFRRHFNSQLCCGRKSYQERGTSYLLSSSAVRMTSLKSNAKNMVTNSVLLNGHSMKQEMAL [NMBR] | – | 2430 ± 1200 | –
5 | MMCFLLIISSILVVFAFVLGNVANGFIALVNVIDWVNTRKISSAEQILTALVVSRIGLLWVMLFLWYATVFNSALYGLEVRIVASNAWAVTNHFSMWLAASLSIFCLLKIANFSNLISLHLKKRIKSVVLVILLGPLVFLICNLAVITMDERVWTKEYEGNVTWKIKLRNAIHLSSLTVTTLANLIPFTLSLICFLLLICSLCKHLKKMRLHSKGSQDPSTKVHIKALQTVTSFLMLFAIYFLCIITSTWNLRTQQSKLVLLLCQTVAIMYPSFHSFILIMGSRKLKQTFLSVLWQMTR [TAS2R19] | – | – | plasma membrane surface immunostaining intensity (GPCR class: Taste): 370 ± 230
6 | MDNITWMASHTGWSDFILMGLFRQSKHPMANITWMANHTGWSDFILLGLFRQSKHPALLCVVIFVVFLMALSGNAVLILLIHCDAHLHTPMYFFISQLSLMDMAYISVTVPKMLLDQVMGVNKISAPECGMQMFFYVTLAGSEFFLLATMAYDRYVAICHPLRYPVLMNHRVCLFLSSGCWFLGSVDGFTFTPITMTFPFRGSREIHHFFCEVPAVLNLSCSDTSLYEIFMYLCCVLMLLIPVVIISSSYLLILLTIHGMNSAEGRKKAFATCSSHLTVVILFYGAAIYTYMLPSSYHTPEKDMMVSVFYTILTPVVNPLIYSLRNKDVMGALKKMLTVEPAFQKAME [OR2T4] | 122 ± 21 | – | –
7 | MITLNNQDQPVPFNSSHPDEYKIAALVFYSCIFIIGLFVNITALWVFSCTTKKRTTVTIYMMNVALVDLIFIMTLPFRMFYYAKDEWPFGEYFCQILGALTVFYPSIALWLLAFISADRYMAIVQPKYAKELKNTCKAVLACVGVWIMTLTTTTPLLLLYKDPDKDSTPATCLKISDIIYLKAVNVLNLTRLTFFFLIPLFIMIGCYLVIIHNLLHGRTSKLKPKVKEKSIRIIITLLVQVLVCFMPFHICFAFLMLGTGENSYNPWGAFTTFLMNLSTCLDVILYYIVSKQFQARVISVMLYRNYLRSMRRKSFRSGSLRSLSNINSEML [GPR18] | – | 360 ± 120 | –
8 | MLGLNHTSMSEFILVGFSAFPHLQLMLFLLFLLMYLFTLLGNLLIMATVWSERSLHTPMYLFLCVLSVSEILYTVAIIPRMLADLLSTQRSIAFLACASQMFFSFSFGFTHSFLLTVMGYDRYVAICHPLRYNVLMSPRGCACLVGCSWAGGSVMGMVVTSAIFQLTFCGSHEIQHFLCHVPPLLKLACGNNVPAVALGVGLVCIMALLGCFLLILLSYAFIVADILKIPSAEGRNKAFSTCASHLIVVIVHYGFASVIYLKPKGPHSQEGDTLMATTYAVLTPFLSPIIFSLRNKELKVAMKRTFLSTLYSSGT [OR10H2] | 112 ± 22 | – | –
